19 sequences from the DeepSol protein solubility set can be followed below.

The nature of this data set: soluble on expression in E. coli; label from the status in PepcDB or PDB records.
Take “MLREVVHRFGESDFTFLSVLDSYALLDRIDPAAFVKDEQMPYWAEIWPAAVTLSRQIVETGELAGKSVLELGAGVGMASIAAARSGARVLCTDYSTEALRFVAYNAMKNRVPLDTARLDWRMVKGAEKFDAVIAADVLYERVNLLPIVTAIDALLAPGGAAYIADPRRRLADQFLELVHENGFEVAETRMFDAEGDQTVAVTIYKLQRLKALEHHHHHH”: the “soluble on expression in E. coli” value is recorded as “not soluble”.

Turning to “MDRVTRYPILGIPQAHRGTGLVLDGDTSYTYHLVCMGPEASGWGQDEPQTWPTDHRAQQGVQRQGVSYSVHAYTGQPSPRGLHSENREDEGWQVYRLGARDAHQGRPTWALRPEDGEDKEMKTYRLDAGDADPRRLCDLERERWAVIQGQAVRKSSTVATLQGTPDHGDPRTPGPPRSTPLEENVVDREQIDFLAARQQFLSLEQANKGAPHSSPARGTPAGTTPGASQAPKAFNKPHLANGHVVPIKPQVKGVVREENKVRAVPTWASVQVVDDPGSLASVESPGTPKETPIEREIRLAQEREADLREQRGLRQATDHQELVEIPTRPLLTKLSLITAPRRERGRPSLYVQRDIVQETQREEDHRREGLHVGRASTPDWVSEGPQPGLRRALSSDSILSPAPDARAADPAPEVRKVNRIPPDAYQPYLSPGTPQLEFSAFGAFGKPSSLSTAEAKAATSPKATMSPRHLSESSGKPLSTKQEASKPPRGCPQANRGVVRWEYFRLRPLRFRAPDEPQQAQVPHVWGWEVAGAPALRLQKSQSSDLLERERESVLRREQEVAEERRNALFPEVFSPTPDENSDQNSRSSSQASGITGSYSVSESPFFSPIHLHSNVAWTVEDPVDSAPPGQRKKEQWYAGINPSDGINSEVLEAIRVTRHKNAMAERWESRIYASEEDD”, the “soluble on expression in E. coli” value is recorded as “not soluble”.

Turning to “MHESIQMIIDRIDHLVLTVSDISTTIRFYEEVLGFSAVTFKQNRKALIFGAQKINLHQQEMEFEPKASRPTPGSADLCFITSTPINDVVSEILQAGISIVEGPVERTGATGEIMSIYIRDPDGNLIEISQYVLEHHHHHH”, the “soluble on expression in E. coli” value is “not soluble”. Then “MYSLLTLLFVLFFSGSTLLVQCGGKKKGATSAEGKSSTMGPAPGGAPAAASAQGEPEEKE”, with “not soluble”; and “MILPPIPTPFDREGRLDEEAFRELAQALEPLVDGLLVYGSNGEGVHLTPEERARGLRALRPRKPFLVGLMEETLPQAEGALLEAKAAGAMALLATPPRYYHGSLGAGLLRYYEALAEKMPLFLYHVPQNTKVDLPLEAVEALAPHPNVLGIKDSSGDLSRIAFYQARLQEFRVYTGHAPTFLGALALGAEGGILAAANLAPRAYRALLDHFREGRLAEAQELQKKLFPLGDLLAKGGVPLLKQALRHLGLPAGYPRPPYPAESPLWERFLPVLEGLKEEGWVL”, with “soluble”. For the sequence “MIALKMFYTEETYEQFFDYGLDYVIDASDTICYKIHLMKECLKRDIPLISSMGAANKTDPTRFQIADISKTHTDPIAKVVRTKLRKEGIKKGVQVIFSDESPIVIREDVRKEVGNDEAKIRKAKMPPSSNAFVPSVAGLIMGGHVVMDLLKDIEIKRVKDK”, the “soluble on expression in E. coli” value is recorded as “not soluble”. As to “MSLIDKSSEIARFSGKGILITPKTLEKPLLKWEKLEIILYKDKIVFEFVDKTIEVGVEDIEDVGAELPKKVIDIAKSTLEDITYHSSIIIKSKEFGNVMVGFAPETSIYGKAPIDNFLRKLFYILLNKKEVKILYNAGENSENTKWENGFLTFIKKRIKDGLVTKIEYRLVVEILDNEDSKIYDIFSNIKDVEIEEKDVDGEIEPVLKILQVKDGKDIISYLYTKDKKVRLFILRYMVILLDYKYIGILRYLQETVEEGHHHHHH”, the “soluble on expression in E. coli” value was “soluble”.

Regarding “MGSDKIHHHHHHMGLALCGAAAQAQEKPNFLIIQCDHLTQRVVGAYGQTQGCTLPIDEVASRGVIFSNAYVGCPLSQPSRAALWSGMMPHQTNVRSNSSEPVNTRLPENVPTLGSLFSESGYEAVHFGKTHDMGSLRGFKHKEPVAKPFTDPEFPVNNDSFLDVGTCEDAVAYLSNPPKEPFICIADFQNPHNICGFIGENAGVHTDRPISGPLPELPDNFDVEDWSNIPTPVQYICCSHRRMTQAAHWNEENYRHYIAAFQHYTKMVSKQVDSVLKALYSTPAGRNTIVVIMADHGDGMASHRMVTKHISFYDEMTNVPFIFAGPGIKQQKKPVDHLLTQPTLDLLPTLCDLAGIAVPAEKAGISLAPTLRGEKQKKSHPYVVSEWHSEYEYVTTPGRMVRGPRYKYTHYLEGNGEELYDMKKDPGERKNLAKDPKYSKILAEHRALLDDYITRSKDDYRSLKVDADPRCRNHTPGYPSHEGPGAREILKRK”, the “soluble on expression in E. coli” value is listed as “not soluble”. Regarding “MGSDKIHHHHHHMAIKNVSIVYPNRFGGGIACLAVHVLTSHLNKYRDISANAYFIENYSKIKNSDAILITLQYENDYFNVVKIVKELKAQNPNAIFIAGGPCAISNPLPIQEFFDVFVVGEIEGTDTMYQLINGNFEIPGVYVPKTYNNEKIKRIYPKKLGIDDYPISQVTHESGAYGKAYLLEIGRGCIRNCKFCMAKCIYAPPRYRKIEDLKHLVDEGLKNTDADKVSLIAPSVSDYRYVLDLCAHISEKNVSISPSSLRADTITDELLEYLNLKTLTIAPEAGSEVLRKKIDKGITEENILNAVDIAKTHGISTVKLYYMVGFPDETEEDIEEIINLTKKIKDNVRKVDVSINPMVPKPHTPFEDFEFDMDSKTKIKYIEKSLRKIKVSVDFEKFNSMVAQTVLARGGSELSKVLNESRNTIELIKNVDLDNYINKIEEKPWDFIEI”, the “soluble on expression in E. coli” value is on record as “not soluble”. Next, “MSLDRSNTVELHAAGAQSAQGARPDQEDEYIILTPGGSPNEIGDSIAFFAVFDGHGTGIVSNHAKEHIPLLLFESDEFRSGNYERAMQAAIDKEDELLLQGFREGQNFFATSGSTASLALVDMKNGVLVVGNIGDSHILMAERDPENGQVKSIERLTTSHKPESADEKARIEKAGGHVHSHHDISRIGSLNMSRALGDLQYKTPLISAAAAPKTEGQKFACAPDPQNVSSQDGAQAGTGRDDFITVEMSFRRIDLHKEKQYLLALTTDGVTNALDDGKIMNGIAEMFNTGSKADEVARKVVDQAASTEYADNATCVTVFLNGTEARLAEGHHHHHH”: “soluble”; “MGSDKIHHHHHHMSTDCLQELENALGRAALVRDEDRALYDVDWRGHLHGRSLAVVCPSRVEDVGETIRIARRHQISIVPQGGNTGLAGGATPDSTGRQLVLCTRRLNRIRGVDLLGNFITVDAGCILQNVQDAAQSHDRLFPLSLAAQGSCTIGGNLATNAGGNAVLRYGNMRELCVGIEAVDAQGRLIGDLKCVRKNNTGYSLRDLLIGSEGTLGIITGAALRLFPRPFAYATALVKCADIDHALQVLGILRAHCADFLSGVEWMSNGSLSNVSKQFLDTRIPPGFDESCLCLVELSGSTPPGLLDDILASALDQAITSGFAADAALASNLAERDAFWALRERLPLAEARCRSLKHDVSLPAGNMSEFVAHLEGYLSSMTLRCAWAGFGHLGDGNLHANVLIPDTMPDALCDCIDEFVYSEVLRLEGSISAEHGIGSRKNDLLHRALDVASLQAMQAVRNALDPHNLFNPGKLLFN”: “not soluble”; “YIGLVNSFAQKKKLSVNYEQCEPNSELPQRFICKCKIGQTMYGTGSGVTKQEAKQLAAKEAYQKLLKSPPKTAGT”: “soluble”. Turning to “MGSDKIHHHHHHMPFDGLLLHKAVRELKELEGEHLRQIYQPTTVDYYFLFRSATVRVCLRPDVSHVAIAEKEEASEKMPSSFTMLLRKELKGAKLLKVEQIGMDRTLRFSFEKFDEIEGIVQKDLYIEIMGIHSNMILVRDRRIIDAHRRIVTKKREILPGREFVIFPSGKVSIFELRELPPESEKTIRNVLLSLLEGFSPVSVEELIHRTGYELDTPWKAVDQRKILEVLEEIKKELELPGVFVYYEASHPVEVSAFRFTMLSLKERYFEKPSEGINEFVRWKEEKSTFENTKNRFIKVVVNRIEDLEDLEEKLSRELSEAEKAERYKKLGDLIVQNLWSIKGKSGEVELTDWETNEKIVVDVGKDPAQTAQKFYNTYKKLQRKKEQVEKRLEEIQREKEYLYQLWQTIEDAEDLETLEEIEEEMREFGLLKERKTKKQKSKKTRFREVYYGGFKILIGRNNKQNDELVRTSSKEDLWFHAHEMPGAHVVVKTEGKKVPQEVVEYAASLAAGYSKGKNSGKVPVDYTFIKYVRKPKGFKPGMVIYKNYKTILVEPRRIEG”, the “soluble on expression in E. coli” value was “not soluble”. Next, “QHQEAGAGDLCALCGEHLYVLERLCVNGHFFHRSCFRCHTCEATLWPGGYEQHPGDGHFYCLQHLPQTD”: “soluble”. “MIDSANRADVFLRKPAPVAPELQHEVEQFYYWEAKLLNDRRFEEWFALLAEDIHYFMPIRTTRIMRDSRLEYSGSREYAHFDDDATMMKGRLRKITSDVSWSENPASRTRHLVSNVMIVGAEAEGEYEISSAFIVYRNRLERQLDIFAGERRDTLRRNTSEAGFEIVNRTILIDQSTILANNLSFFF”: the “soluble on expression in E. coli” value is “soluble”. As for “MKIIAYGARVDEIQYFKQWAKDTGNTLEYHTEFLDENTVEWAKGFDGINSLQTTPYAAGVFEKMHAYGIKFLTIRNVGTDNIDMTAMKQYGIRLSNVPAYSPAAIAEFALTDTLYLLRNMGKVQAQLQAGDYEKAGTFIGKELGQQTVGVMGTGHIGQVAIKLFKGFGAKVIAYDPYPMKGDHPDFDYVSLEDLFKQSDVIDLHVPGIEQNTHIINEAAFNLMKPGAIVINTARPNLIDTQAMLSNLKSGKLAGVGIDTYEYETEDLLNLAKHGSFKDPLWDELLGMPNVVLSPHIAYYTETAVHNMVYFSLQHLVDFLTKGETSTEVTGPAK”, the “soluble on expression in E. coli” value is on record as “soluble”. With “MIFEMMGEKFDKNAPIAMQSDVFPRFIINCRDGRTIFKENDTLEFELIIFDNLTELFIQYIYVFETIGQSGLGPEKARYELLSVSDGKGNIIYKNTLLTGNAPVSDIREYISSRLDYCLNNRKNISRMTLLSSVMLNSDCKNGNKKVFFFSAEAFSYSIRERLSRLNVLEKEDEEKLNELLSDKRIINGINMKLTKIDYYIQNEQKTVTFPRFKGYIVFDIERINSYLDYFFACEKLCIGQNILLGFGRYVMG”, the “soluble on expression in E. coli” value is listed as “not soluble”. In the case of “MAHHHHHHMSTTQAALFPFRHHWRVPVTLAINTTVPNGAPSATESGGCTQPQSPGEQAAAHAAVTPDGIDAVVTDFVFAQSGRRLLLVRGDSPPDLRLCLSEDSPNGPLSGALGAGIAVEASPLQQAHRALCTGAELIHHVSTLRDQQLEGHRPCDGDTRASALELCVAGYPQGHPLDRTWGATSAAYSAPAEAAATGSVATRDSSVAAARQRSLEFLRAFEEDFDAAEHAFTAAVRVAKRRACVVSAEKRSSDISVDDGTPSAASGEPRERARHLCTPQAVMPELKEPCRTLGRLGAVRRLWTSSSIYAPYVRAACIHRMLHEKVLLRSPSEPEHRRIRSGSFHGGAAAPVIVTQMITTAQGFTGYVDEIQRGLRAWAATAGGGEQPEPAGDGPQQQHPVHAAAPTALTPPISVIPGVLLPHPTDVHVLLRSLYYTKVIPSARMQKALEVYASELMIAWRQLADEPPRRKREPALQDDTFLQALTESNGSAATLEVSEDRVAQVEARVREVRRCASCRLTSVWLSETVDLLHDLQRHGQARLHLFTMFNDKVGVRVAQLLAAYDAPRGASAEQ”, the “soluble on expression in E. coli” value was “not soluble”.

On to “MGSDKIHHHHHHMTLDNHHCVQLVPLFEKLAEQDLTKVEKIVEHKKIKKGEIIISPDKEPLLVIVAQGALKISQLSQSGKEQLLRIIEAGDYEGEGALLGVTNGQLYGQAMIDSTICFLRQSDFETLLTTYPSLSLQLLKLNAKKYLAAEHQAGFLALDDVEARLAHYFLNLSATSDSIYFEIPMKLKELANYIGTSPETISRKIKVFEENKIISRQGRMIKLLDKEKLEDDFA”, for which the “soluble on expression in E. coli” value is on record as “not soluble”.
